Experimental data: US9260500B2, “Peptide and use thereof” (Takeda Pharmaceutical Company Limited, priority 2009, dated 2016)
Starred links: 1 amine or outer side, 2 acyl side, 3 side chain; linkers in the order of their positions; H or OH if unused. Non-standard residues stand in square brackets, D forms with d. *: point of attachment. Ser(Me) = methylated serine, COC[C@H](N[*:1])C(=O)[*:2]; βHOAla = beta-homoalanine (β-HOAla), D- or L-form; Phe(4-NH2) = Nc1ccc(C[C@H](N)C(=O)O)cc1; β‑HOAla = beta-homoalanine, D or L form; Arg(Me) = CNC(=N)NCCC[C@H](N)C(=O)O; 4Pal = N[C@@H](Cc1ccncc1)C(=O)O; Cha = N[C@@H](CC1CCCCC1)C(=O)O; αMeP = C[C@@]1(C(=O)O)CCCN1; Abu = CC[C@H](N)C(=O)O; Dap = NC[C@H](N)C(=O)O; Aib = CC(C)(N)C(=O)O; Bz = O=C(c1ccccc1)*; βAla = NCCC(=O)O

What was measured:
human Y2 receptor [1] = target: T1, human Y2 receptor (Homo sapiens, UniProt P49146); assay: Receptor Binding Assay (RBA) for Human Y2, [125I]-PYY displacement on hY2R/CHO membrane fraction; conditions: IC50 of test compound/IC50 of PYY(3-36) (PYY(3-36) taken as 1)
T1 construct: expressed in transfected cells; membrane fraction
T1 sequence (P49146 1-381): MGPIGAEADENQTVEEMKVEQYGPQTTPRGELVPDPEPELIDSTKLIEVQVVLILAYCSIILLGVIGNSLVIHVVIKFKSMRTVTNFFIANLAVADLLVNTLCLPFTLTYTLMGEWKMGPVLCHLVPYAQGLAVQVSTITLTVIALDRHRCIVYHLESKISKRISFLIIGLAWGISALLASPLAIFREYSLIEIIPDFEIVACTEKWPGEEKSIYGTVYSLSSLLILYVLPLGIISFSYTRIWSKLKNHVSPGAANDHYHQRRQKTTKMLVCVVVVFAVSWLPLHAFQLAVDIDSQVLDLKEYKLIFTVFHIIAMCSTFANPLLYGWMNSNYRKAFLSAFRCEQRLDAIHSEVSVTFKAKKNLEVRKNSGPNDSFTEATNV
Method in brief: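 Read-out is [125I]-PYY displacement from membranes of CHO/dhfr− cells stably transfected with human Y2R. Membranes were obtained by disrupting cells in a buffer of 10 mM NaHCO3, 5 mM EDTA and protease inhibitors.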

human Y2 receptor [2] = target: T1, human Y2 receptor; assay: Human Y2 Receptor G Protein Binding Assay (GBA), [35S]GTPγS; format: biochemical; conditions: EC50 of test compound/EC50 of PYY(3-36) (PYY3-36 taken as 1), hY2R/CHO membrane fraction
Method in brief: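 Agonism measured as [35S]GTPγS binding, read by GF/C filtration and scintillation counting after 120 min at room temperature, using human Y2 membranes at 1 μg protein/mL in pH 7.4 Tris/MgCl2/NaCl/GDP buffer. Compound serially diluted 100 μM–1 nM; EC50 normalized to PYY(3-36) (ratio = compound/PYY).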

Row | Substance | RBA IC50 Ratio (human Y2 receptor [1]) | GBA EC50 Ratio (human Y2 receptor [2])
1 | Ac-[Phe22, D-Pro24, Pya(4)26, Cha27,36, Aib28,31, Lys30]-PYY(22-36) (Ac-FS[dP]R[4Pal][Cha][Aib]NK[Aib]TRQR[Cha]-NH2; SMILES CC(=O)N[C@@H](Cc1ccccc1)C(=O)N[C@@H](CO)C(=O)N1CCC[C@@H]1C(=O)N[C@@H](CCCNC(=N)N)C(=O)N[C@@H](Cc1ccncc1)C(=O)N[C@@H](CC1CCCCC1)C(=O)NC(C)(C)C(=O)N[C@@H](CC(N)=O)C(=O)N[C@@H](CCCCN)C(=O)NC(C)(C)C(=O)N[C@H](C(=O)N[C@@H](CCCNC(=N)N)C(=O)N[C@@H](CCC(N)=O)C(=O)N[C@@H](CCCNC(=N)N)C(=O)N[C@@H](CC1CCCCC1)C(N)=O)[C@@H](C)O) [compound No. 275] | 1.2 | 0.89
2 | Ac-[Phe23, D-Pro24, Abu26, Cha27,28,36, Aib31]-PYY(23-36) (Ac-F[dP]R[Abu][Cha][Cha]NL[Aib]TRQR[Cha]-NH2; SMILES CC[C@H](NC(=O)[C@H](CCCNC(=N)N)NC(=O)[C@H]1CCCN1C(=O)[C@H](Cc1ccccc1)NC(C)=O)C(=O)N[C@@H](CC1CCCCC1)C(=O)N[C@@H](CC1CCCCC1)C(=O)N[C@@H](CC(N)=O)C(=O)N[C@@H](CC(C)C)C(=O)NC(C)(C)C(=O)N[C@H](C(=O)N[C@@H](CCCNC(=N)N)C(=O)N[C@@H](CCC(N)=O)C(=O)N[C@@H](CCCNC(=N)N)C(=O)N[C@@H](CC1CCCCC1)C(N)=O)[C@@H](C)O) [compound No. 107] | 12 | 5.9
3 | Ac-[Ser(Me)23, D-Pro24, Abu26, Cha27,28,36, Aib31]-PYY(23-36) (Ac-[Ser(Me)][dP]R[Abu][Cha][Cha]NL[Aib]TRQR[Cha]-NH2; SMILES CC[C@H](NC(=O)[C@H](CCCNC(=N)N)NC(=O)[C@H]1CCCN1C(=O)[C@H](COC)NC(C)=O)C(=O)N[C@@H](CC1CCCCC1)C(=O)N[C@@H](CC1CCCCC1)C(=O)N[C@@H](CC(N)=O)C(=O)N[C@@H](CC(C)C)C(=O)NC(C)(C)C(=O)N[C@H](C(=O)N[C@@H](CCCNC(=N)N)C(=O)N[C@@H](CCC(N)=O)C(=O)N[C@@H](CCCNC(=N)N)C(=O)N[C@@H](CC1CCCCC1)C(N)=O)[C@@H](C)O) [compound No. 106] | 5.2 | 3.8
4 | Ac-[Thr23, D-Pro24, Pya(4)26, Cha27,36, Aib28,31, Lys30]-PYY(23-36) (Ac-T[dP]R[4Pal][Cha][Aib]NK[Aib]TRQR[Cha]-NH2; SMILES CC(=O)N[C@H](C(=O)N1CCC[C@@H]1C(=O)N[C@@H](CCCNC(=N)N)C(=O)N[C@@H](Cc1ccncc1)C(=O)N[C@@H](CC1CCCCC1)C(=O)NC(C)(C)C(=O)N[C@@H](CC(N)=O)C(=O)N[C@@H](CCCCN)C(=O)NC(C)(C)C(=O)N[C@H](C(=O)N[C@@H](CCCNC(=N)N)C(=O)N[C@@H](CCC(N)=O)C(=O)N[C@@H](CCCNC(=N)N)C(=O)N[C@@H](CC1CCCCC1)C(N)=O)[C@@H](C)O)[C@@H](C)O) [compound No. 211] | 1.1 | 0.69
5 | Ac-[αMePro24, Cha27,28,36, Aib31]-PYY(23-36) (Ac-S[αMeP]RH[Cha][Cha]NL[Aib]TRQR[Cha]-NH2; SMILES CC(=O)N[C@@H](CO)C(=O)N1CCC[C@@]1(C)C(=O)N[C@@H](CCCNC(=N)N)C(=O)N[C@@H](Cc1c[nH]cn1)C(=O)N[C@@H](CC1CCCCC1)C(=O)N[C@@H](CC1CCCCC1)C(=O)N[C@@H](CC(N)=O)C(=O)N[C@@H](CC(C)C)C(=O)NC(C)(C)C(=O)N[C@H](C(=O)N[C@@H](CCCNC(=N)N)C(=O)N[C@@H](CCC(N)=O)C(=O)N[C@@H](CCCNC(=N)N)C(=O)N[C@@H](CC1CCCCC1)C(N)=O)[C@@H](C)O) [compound No. 154] | 2.8 | 1.3
6 | Ac-[β-HOAla24, Pya(4)26, Cha27,36, Aib28,31, Lys30]-PYY(23-36) [compound No. 244] (Ac-S[βHOAla]R[4Pal][Cha][Aib]NK[Aib]TRQR[Cha]-NH2; also: former peak, β-HOAla D/L configuration not assigned) | 2.4 | 2.8
7 | Ac-[β-HOAla24, Pya(4)26, Cha27,36, Aib28,31, Lys30]-PYY(23-36) [compound No. 245] (Ac-S[β‑HOAla]R[4Pal][Cha][Aib]NK[Aib]TRQR[Cha]-NH2; also: β-HOAla at position 2: D or L form not settled) | 0.85 | 1.9
8 | Ac-[βAla24, Pya(4)26, Cha27,36, Aib28,31, Lys30]-PYY(23-36) (Ac-S[βAla]R[4Pal][Cha][Aib]NK[Aib]TRQR[Cha]-NH2; SMILES CC(=O)N[C@@H](CO)C(=O)NCCC(=O)N[C@@H](CCCNC(=N)N)C(=O)N[C@@H](Cc1ccncc1)C(=O)N[C@@H](CC1CCCCC1)C(=O)NC(C)(C)C(=O)N[C@@H](CC(N)=O)C(=O)N[C@@H](CCCCN)C(=O)NC(C)(C)C(=O)N[C@H](C(=O)N[C@@H](CCCNC(=N)N)C(=O)N[C@@H](CCC(N)=O)C(=O)N[C@@H](CCCNC(=N)N)C(=O)N[C@@H](CC1CCCCC1)C(N)=O)[C@@H](C)O) [compound No. 222] | 1.9 | 1.1
9 | Benzoyl-[Asn26, Cha27,28,36, Aib31]-PYY(25-36) (Bz-RN[Cha][Cha]NL[Aib]TRQR[Cha]-NH2; SMILES CC(C)C[C@H](NC(=O)[C@H](CC(N)=O)NC(=O)[C@H](CC1CCCCC1)NC(=O)[C@H](CC1CCCCC1)NC(=O)[C@H](CC(N)=O)NC(=O)[C@H](CCCNC(=N)N)NC(=O)c1ccccc1)C(=O)NC(C)(C)C(=O)N[C@H](C(=O)N[C@@H](CCCNC(=N)N)C(=O)N[C@@H](CCC(N)=O)C(=O)N[C@@H](CCCNC(=N)N)C(=O)N[C@@H](CC1CCCCC1)C(N)=O)[C@@H](C)O) [compound No. 99] | 19 | 21
10 | Benzoyl-[Cha27,28,36, Aib31]-PYY(25-36) (Bz-RH[Cha][Cha]NL[Aib]TRQR[Cha]-NH2; SMILES CC(C)C[C@H](NC(=O)[C@H](CC(N)=O)NC(=O)[C@H](CC1CCCCC1)NC(=O)[C@H](CC1CCCCC1)NC(=O)[C@H](Cc1c[nH]cn1)NC(=O)[C@H](CCCNC(=N)N)NC(=O)c1ccccc1)C(=O)NC(C)(C)C(=O)N[C@H](C(=O)N[C@@H](CCCNC(=N)N)C(=O)N[C@@H](CCC(N)=O)C(=O)N[C@@H](CCCNC(=N)N)C(=O)N[C@@H](CC1CCCCC1)C(N)=O)[C@@H](C)O) [compound No. 64] | 28 | 18
11 | Benzoyl-[Cha27,36, Ile28,31, Phe(4NH2)30]-PYY(25-36) (Bz-RH[Cha]IN[Phe(4-NH2)]ITRQR[Cha]-NH2; SMILES CC[C@H](C)[C@H](NC(=O)[C@H](CC1CCCCC1)NC(=O)[C@H](Cc1c[nH]cn1)NC(=O)[C@H](CCCNC(=N)N)NC(=O)c1ccccc1)C(=O)N[C@@H](CC(N)=O)C(=O)N[C@@H](Cc1ccc(N)cc1)C(=O)N[C@H](C(=O)N[C@H](C(=O)N[C@@H](CCCNC(=N)N)C(=O)N[C@@H](CCC(N)=O)C(=O)N[C@@H](CCCNC(=N)N)C(=O)N[C@@H](CC1CCCCC1)C(N)=O)[C@@H](C)O)[C@@H](C)CC) [compound No. 73] | 12 | 6.6
12 | Benzoyl-[Cha27,36, Ile28, Arg(Me)31]-PYY(25-36) (Bz-RH[Cha]INL[Arg(Me)]TRQR[Cha]-NH2) [compound No. 70] | 18 | 15
13 | Benzoyl-[Cha27,36, Ile28, Dap31]-PYY(25-36) (Bz-RH[Cha]INL[Dap]TRQR[Cha]-NH2; SMILES CC[C@H](C)[C@H](NC(=O)[C@H](CC1CCCCC1)NC(=O)[C@H](Cc1c[nH]cn1)NC(=O)[C@H](CCCNC(=N)N)NC(=O)c1ccccc1)C(=O)N[C@@H](CC(N)=O)C(=O)N[C@@H](CC(C)C)C(=O)N[C@@H](CN)C(=O)N[C@H](C(=O)N[C@@H](CCCNC(=N)N)C(=O)N[C@@H](CCC(N)=O)C(=O)N[C@@H](CCCNC(=N)N)C(=O)N[C@@H](CC1CCCCC1)C(N)=O)[C@@H](C)O) [compound No. 69] | 37 | 28
14 | Benzoyl-[Cha27,36, Ile28, Phe(4NH2)31]-PYY(25-36) (Bz-RH[Cha]INL[Phe(4-NH2)]TRQR[Cha]-NH2; SMILES CC[C@H](C)[C@H](NC(=O)[C@H](CC1CCCCC1)NC(=O)[C@H](Cc1c[nH]cn1)NC(=O)[C@H](CCCNC(=N)N)NC(=O)c1ccccc1)C(=O)N[C@@H](CC(N)=O)C(=O)N[C@@H](CC(C)C)C(=O)N[C@@H](Cc1ccc(N)cc1)C(=O)N[C@H](C(=O)N[C@@H](CCCNC(=N)N)C(=O)N[C@@H](CCC(N)=O)C(=O)N[C@@H](CCCNC(=N)N)C(=O)N[C@@H](CC1CCCCC1)C(N)=O)[C@@H](C)O) [compound No. 72] | 5.0 | 5.4
